From patent US20240228986A1, “ENGINEERED CELLS, ENZYMES, AND METHODS FOR PRODUCING CANNABINOIDS” (priority 2021, published 2024)

Key:
Format in all cases: cell-based, Yarrowia
divarinic acid = assay: Unfused rMPTs and APTs, CBGVA/FCBGVA formation in vivo assay (Example 4); conditions: 2 mM divarinic acid, 48 hour quench; for CBGVA / FCBGVA: 2% glucose, strain sCL-SE-0128
Description: (§1) As described below, plasmids pCL-SE-0380 (MPT4), pCL-SE-0337.MPT4, pCL-SE-0338.APT73.74, and pCL-SE-0338.APT73.77 were transformed into strain sCL-SE-0128. Multiple colonies per transformation were precultured for 48 h in YNB containing glucose (2%), casamino acids (0.5%), and MES (100 mM pH 6.5). Pre-culture was used to inoculate assay medium comprised of YNB containing glucose (2%), casamino acids (0.5%), MES (100 mM pH 6.5), and olivetolic acid or divarinic acid (2 mM). Cultures were quenched with equal volume of ethanol after 48 h total growth and assayed for CBG(V)A and FCBG(V)A. Averages and standard deviations were calculated from replicates.
(§2) Overnight YPD (10 g/L yeast extract, 20 g/L peptone, 2% dextrose) cultures were inoculated from glycerol stocks of the appropriate strain and grown at 30° C. with 250 rpm shaking. Once cultures had reached an OD600 of 4-6, cultures were centrifuged at 500×g for 5 min, supernatants were discarded, and cell pellets were resuspended in equal volume of water. Resuspended cells were centrifuged at 500×g for 5 min, supernatants were discarded, and cells were resuspended in a volume (75 μL×OD×Vculture) of transformation cocktail (45% PEG-400, 0.1 M LiAc, 0.1 M DTT, and 25 ug/100 μL SS Salmon Sperm DNA). For each transformation, >1 μg of plasmid DNA was added to 55 μL cells/transformation cocktail and vortexed for 2 s. Transformations were incubated at 39° C. for 1 h with 250 rpm shaking. Transformations were resuspended in 750 μL YPD with 1 M sorbitol and recovered at 30° C. overnight with 250 rpm shaking. The next day, transformations were centrifuged at 500×g for 5 min, supernatants were discarded, and cell pellets were resuspended in 750 YPD. Resuspended transformations were plated on YPD with appropriate selection or YNBD (6.71 g/L yeast nitrogen base+nitrogen, 0.5% casamino acids, 2% dextrose) agar plates and grown at 30° C. for 2 days. Individual colonies were patched onto YPD plates with appropriate selection or YNBD plates and grown at 30° C. overnight. Patches were used to inoculate 0.5 mL YPD with appropriate selection or YNBD precultures in 96 w blocks and grown at 30° C. for 24-48 h with 1000 rpm shaking. For assays, 0.5 mL YPD with appropriate selection or YNBD cultures containing substrate were inoculated with 2 μL from precultures and grown at 30° C. for 2-4 days with 1000 rpm shaking with 2% glucose added every 24 h. Assay cultures were quenched by addition of 0.5 mL ethanol with 0.2% formic acid and 0.5 mg/mL pentyl-benzoic acid. Precipitates were pelleted by centrifuging at 4600×g for 10 min and then 200 μL was transferred to fresh plates, sealed, and analyzed via HPLC.
(§3) All samples were quenched with equal volume of EtOH containing 0.2 mg/mL internal standard (3,5-Diisopropyl-2-hydroxybenzoic acid CAS #2215-21-6) centrifuged, and clarified solutions were analyzed by HPLC-MS
(§4) • Column: 2.1×50 mm COSMOCORE PBr (Nacalai USA, Inc.) • Mobile Phase: A; 0.1% formic acid in water, B; 0.1% formic acid in acetonitrile • Flow: 0.45 mL/min • Temp: % 50 Celsius • Gradient: 20%B at 0 min, 70%B at 2.3 min, 89% B at 4.2 min, 20% B at 4.3 min, 20%B at 6 min

olivetolic acid [1] = assay: Unfused rMPTs and APTs, CBGA/FCBGA formation in vivo assay (Example 4); conditions: for CBGA / FCBGA / CBGA/FCB: 2 mM olivetolic acid, 48 h quench; for CBGA / FCBGA: 2% glucose, strain sCL-SE-0128; for CBGA/FCB: product ratio
Description: as §1, §2, §3, §4

olivetolic acid [2] = assay: GPS-APT fusions, OA feed in vivo assay (Example 11)
Description: as §1, with “plasmids pCL-SE-0406, pCL-SE-0664, pCL-SE-0663, pCL-SE-0662,” for “plasmids”, “pCL-SE-0337.MPT21, pCL-SE-0337.MPT26,” for “pCL-SE-0337.MPT4, pCL-SE-0338.APT73.74,”, “pCL-SE-0337.MPT31” for “pCL-SE-0338.APT73.77”, “acid” for “acid or divarinic acid”, “CBGA” for “CBG(V)A”, “FCBGA.” for “FCBG(V)A.”
Soluble prenyl transferase APT73.77 was fused with GPS1.1 at the N- or C-terminus with different linkers creating the plasmids shown in Table 14. These fusion proteins were expressed and screened as described in Example 8 (olivetolic acid feed)
as §2, §3, §4

olivetolic acid [3] = assay: MPT4.1 with and without GPS1.1 fusion vs MPT4 fusion, in vivo assay (Example 5); conditions: 3 mM olivetolic acid, 48 h quench
Description: As described below, plasmids pCL-SE-0337.MPT4.1 and pCL-SE-0753 were transformed into strain sCL-SE-0128. Multiple colonies per transformation were precultured for 24 h in YNB containing glucose (2%), casamino acids (0.5%), and MES (100 mM pH 6.5). Pre-culture was used to inoculate assay medium comprised of YNB containing glucose (6%), casamino acids (0.5%), MES (100 mM pH 6.5), and olivetolic acid (3 mM). Cultures were quenched with equal volume of ethanol after 48 h total growth and assayed for CBGA and FCBGA. Averages and standard deviations were calculated from replicates.
as §2, §3, §4

olivetolic acid [4] = assay: GPS1.1 fusions of MPT21 mutants, OA feed (Example 8, Table 10); conditions: in words; mutagenesis of MPT21, tested as GPS1.1-F11 fusions
Description: as §2, §3, §4

[5] = in words, between APT73 mutants
[6] = olivetolic acid feed as in Example 8, 48 h quench, strain sCL-SE-0128

| Molecule | CBGVA (divarinic acid) [µM] | FCBGVA (divarinic acid) [µM] | CBGA (olivetolic acid [1]) [µM] | FCBGA (olivetolic acid [1]) [µM] | CBGA/FCB (olivetolic acid [1]) | ratio of CBGA/FCBGA (olivetolic acid [4]) | further results |
| --- | --- | --- | --- | --- | --- | --- | --- |
| APT73.74: recombinant soluble aromatic prenyltransferase, SEQ ID NO: 37 (protein, APT73.74 (mutant soluble aromatic prenyltransferase)) MDEVYAAVEQTSRLLDVPCSPDRFEPVWKAFGDQLPDSHLVFSMAAGEAHRGELDFDFSLRPEGADPYTTALEHGFIEPTDHPVGSVLAEVGKRFAIASYGVEYGVVGGFKKSYAFFPLDDFPPLAQFAEVPSVPPCLAGHVETLTRLGFDDKVSIIGVNYRKNTLNVYLAASAVDTGDKLALLRAFGYPEPDARVRQFIERSFRLYPTFNWDSSAAERICFAVHTQQPGELPAPHDEPTEAFARQVPHVYEGGREFVSGVALAPSGASYYKLAALYQKARRCLH | 10 ± 0 | 0 ± 0 | 123 ± 5 | 18 ± 1 | 6.7 |  | selectivity (CBGA/FCBGA) (olivetolic acid [1]; [5]): better selectivity |
| APT73.77: recombinant soluble aromatic prenyltransferase, SEQ ID NO: 38 (protein, APT73.77 (mutant soluble aromatic prenyltransferase)) MDEVYAAVEQTSRLLDVPCSPDRFEPVWKAFGDQLPDSHLVFSMAAGEAHRGELDFDFSLRPEGADPYTTALEHGFIEPTDHPVGSVLAEVGKRFAIASYGVEYGVVGGFKKSYAFFPLDDFPPLAQFAEVPSVPPCLAGHVETLTRLGFDDKVSIIGVNYRKNTLNVYLAASAVDTGDKLALLRAFGYPEPDARVRQFIERSFRLYPTFNWDSSAAERICFAVHTQQPGELPAPHDEPTEAFARQVPHVYEGGREFVSGVALAPSGASYYKLAALYQKARRCLD | 10 ± 1 | 1 ± 1 | 145 ± 13 | 55 ± 3 | 2.6 |  | CBGVA/FCBGVA (divarinic acid; product ratio): 12.5; overall activity (CBGA+FCBGA) (olivetolic acid [1]; [5]): better overall activity; CBGA (olivetolic acid [2]; [6]): 215 ± 11 µM; FCBGA (olivetolic acid [2]; [6]): 32 ± 1 µM; CBGA/FCBG (olivetolic acid [2]; olivetolic acid feed, 48 h quench, product ratio): 6.8 |
| MPT4.1 (protein, MPT4.1 (point mutant, membrane-bound prenyltransferase)) MSDNSIATKILNFGHTCWKLQRPYAVKGMISIACGLFGRELFNNRHLFSWGLMWKAFFALVPILSFNFFAAIMNQIYDVDIDRINKPDLPLVSGEMSIETAWILSIIVALTGLIVTIKLKSAPLFVFIYIFGIFAGFAYSVPPIRWKQYPFTNFLITISSHVGLAFTSYSATTSALGLPFVWRPAFSFIIAFMTVMGMTIAFAKDISDIEGDAKYGVSTVATKLGARNMTFVVSGVLLLNYLVSISIGIIWPQVFKSNIMILSHAILAFCLIFQTRELALANYASAPSRQFFEFIWLLYYAEYFVYVFI | 28 ± 8 | 0 ± 0 | 168 ± 33 | 11 ± 2 | 14.6 |  | CBGA (olivetolic acid [3]; 6% glucose, strain sCL-SE-0128): 253 ± 18 µM; FCBGA (olivetolic acid [3]; 6% glucose, strain sCL-SE-0128): 26 ± 2 µM; CBGA/FCBGA (olivetolic acid [3]; product ratio): 9.7; FCBGA byproduct compared to MPT4 (olivetolic acid [1]; in words, OA feed, 48 h): less FCBGA byproduct; activity towards CBGA formation compared to MPT4 (olivetolic acid [1]; in words, OA feed, 48 h): increased activity towards CBGA formation |
| MPT21.8 (protein, MPT21.8 (recombinant membrane-bound prenyltransferase)) MSDNSIATKILNFGHTCWKLQRPYVVKGMISIACGLFGKELLHNTNLISWGLMWKAFFALVPILSFNFFAGIMNQIYDVDIDRINKPDLPLVSGEMSIETAWILSIIVALTGLIVTIKLKSAPLFVFIYIFGIFAGFAYSVPPIRWKQNPSTNFLITISSHVGLAFTSYYASRAALGLPFELRPSFTFLLAFMTVMGMTIAFAKDISDIEGDAKYGVSTVATKLGARNMTFVVSGVLLLNYVAAILAGIIWPQAFNSNVMLLSHAILAFCLIFQTRELALANYASAPSRQFFEFIWLLYYAEYFVYVFI |  |  |  |  |  | improved ratio of CBGA/FCBGA |  |
| MPT21.10 (protein, MPT21.10 (recombinant membrane-bound prenyltransferase)) MSDNSIATKILNFGHTCWKLQRPYVVKGMISIACGLFGKELLHNTNLISWGLMWKAFFALVPILSFNFFAAIMNQIYDVDMDRINKPDLPLVSGEMSIETAWILSIIVALTGLIVTIKLKSAPLFVFIYIFGIFAGFAYSVPPIRWKQNPSTNFLITISSHVGLAFTSYYASRAALGLPFELRPSFTFLLAFMTVMGMTIAFAKDISDIEGDAKYGVSTVATKLGARNMTFVVSGVLLLNYVAAILAGIIWPQAFNSNVMLLSHAILAFCLIFQTRELALANYASAPSRQFFEFIWLLYYAEYFVYVFI |  |  |  |  |  | improved ratio of CBGA/FCBGA |  |
